± gives the standard deviation of the averaged measurements.
Experiment: total protein half-life in vivo (active degradation + dilution); higher = more stable protein
[1] = E. coli NCM3722 delta-clpP, growth: N-lim chemostat, doubling time 6 h
[2] = E. coli NCM3722 delta-hslV, growth: N-lim chemostat, doubling time 6 h
[3] = wild type E. coli NCM3722, growth: C-lim chemostat, doubling time 6 h
[4] = wild type E. coli NCM3722, growth: C-lim chemostat, doubling time 12 h
[5] = wild type E. coli NCM3722, growth: N-lim chemostat, doubling time 6 h
[6] = wild type E. coli NCM3722, growth: N-lim chemostat, doubling time 12 h
[7] = wild type E. coli NCM3722, growth: P-lim chemostat, doubling time 6 h
[8] = wild type E. coli NCM3722, growth: P-lim chemostat, doubling time 12 h
[9] = E. coli NCM3722 delta-lon, growth: N-lim chemostat, doubling time 6 h
[10] = E. coli NCM3722 delta-smpB, growth: N-lim chemostat, doubling time 6 h
[11] = wild type E. coli NCM3722, growth: C-lim chemostat, doubling time 3 h
[12] = E. coli NCM3722 delta-clpP delta-lon delta-hslV, growth: N-lim chemostat, doubling time 6 h

Sequence	total protein half-life in vivo [1] [h]	total protein half-life in vivo [2] [h]	total protein half-life in vivo [3] [h]	total protein half-life in vivo [4] [h]	total protein half-life in vivo [5] [h]	total protein half-life in vivo [6] [h]	total protein half-life in vivo [7] [h]	total protein half-life in vivo [8] [h]	total protein half-life in vivo [9] [h]	total protein half-life in vivo [10] [h]	total protein half-life in vivo [11] [h]	total protein half-life in vivo [12] [h]
MSGKPAARQGDMTQYGGSIVQGSAGVRIGAPTGVACSVCPGGVTSGHPVNPLLGAKVLPGETDIALPGPLPFILSRTYSSYRTKTPAPVGSLGPGWKMPADIRLQLRDNTLILSDNGGRSLYFEHLFPGEDGYSRSESLWLVRGGVAKLDEGHRLAALWQALPEELRLSPHRYLATNSPQGPWWLLGWCERVPEADEVLPAPLPPYRVLTGLVDRFGRTQTFHREAAGEFSGEITGVTDGAWRHFRLVLTTQAQRAEEARQQAISGGTEPSAFPDTLPGYTEYGRDNGIRLSAVWLTHDPEYPENLPAAPLVRYGWTPRGELAVVYDRSGKQVRSFTYDDKYRGRMVAHRHTGRPEIRYRYDSDGRVTEQLNPAGLSYTYQYEKDRITITDSLDRREVLHTQGEAGLKRVVKKEHADGSVTQSQFDAVGRLRAQTDAAGRTTEYSPDVVTGLITRITTPDGRASAFYYNHHNQLTSATGPDGLELRREYDELGRLIQETAPDGDITRYRYDNPHSDLPCATEDATGSRKTMTWSRYGQLLSFTDCSGYVTRYDHDRFGQMTAVHREEGLSQYRAYDSRGQLIAVKDTQGHETRYEYNIAGDLTAVIAPDGSRNGTQYDAWGKAVRTTQGGLTRSMEYDAAGRVIRLTSENGSHTTFRYDVLDRLIQETGFDGRTQRYHHDLTGKLIRSEDEGLVTHWHYDEADRLTHRTVKGETAERWQYDERGWLTDISHISEGHRVAVHYRYDEKGRLTGERQTVHHPQTEALLWQHETRHAYNAQGLANRCIPDSLPAVEWLTYGSGYLAGMKLGDTPLVEYTRDRLHRETLRSFGRYELTTAYTPAGQLQSQHLNSLLSDRDYTWNDNGELIRISSPRQTRSYSYSTTGRLTGVHTTAANLDIRIPYATDPAGNRLPDPELHPDSTLSMWPDNRIARDAHYLYRYDRHGRLTEKTDLIPEGVIRTDDERTHRYHYDSQHRLVHYTRTQYEEPLVESRYLYDPLGRRVAKRVWRRERDLTGWMSLSRKPQVTWYGWDGDRLTTIQNDRSRIQTIYQPGSFTPLIRVETATGELAKTQRRSLADALQQSGGEDGGSVVFPPVLVQMLDRLESEILADRVSEESRRWLASCGLTVEQMQNQMDPVYTPARKIHLYHCDHRGLPLALISTEGATAWCAEYDEWGNLLNEENPHQLQQLIRLPGQQYDEESGLYYNRHRYYDPLQGRYITQDPIGLKGGWNLYGYQLNPISDIDPLGLSMWEDAKSGACTNGLCGTLSAMIGPDKFDSIDSTAYDALNKINSQSICEDKEFAGLICKDNSGRYFSTAPNRGERKGSYPFNSPCPNGTEKVSAYHTHGADSHGEYWDEIFSGKDEKIVKSKDNNIKSFYLGTPSGNFKAIDNHGKEITNRKGLPNVCRVHGNM	5.71	6.16 ± 0.29	5.99 ± 0.77	15.1	5.88	12.5 ± 0.6	4.38	13.7				
MSGLKQELGLAQGIGLLSTSLLGTGVFAVPALAALVAGNNSLWAWPVLIILVFPIAIVFAILGRHYPSAGGVAHFVGMAFGSRLERVTGWLFLSVIPVGLPAALQIAAGFGQAMFGWHSWQLLLAELGTLALVWYIGTRGASSSANLQTVIAGLIVALIVAIWWAGDIKPANIPFPAPGNIELTGLFAALSVMFWCFVGLEAFAHLASEFKNPERDFPRALMIGLLLAGLVYWGCTVVVLHFDAYGEKMAAAASLPKIVVQLFGVGALWIACVIGYLACFASLNIYIQSFARLVWSQAQHNPDHYLARLSSRHIPNNALNAVLGCCVVSTLVIHALEINLDALIIYANGIFIMIYLLCMLAGCKLLQGRYRLLAVVGGLLCVLLLAMVGWKSLYALIMLAGLWLLLPKRKTPENGITT							4.1	12	3.09	5.32		
MSGLPLISRRRLLTAMALSPLLWQMNTAHAAAIDPNRIVALEWLPVELLLALGIVPYGVADTINYRLWVSEPPLPDSVIDVGLRTEPNLELLTEMKPSFMVWSAGYGPSPEMLARIAPGRGFNFSDGKQPLAMARKSLTEMADLLNLQSAAETHLAQYEDFIRSMKPRFVKRGARPLLLTTLIDPRHMLVFGPNSLFQEILDEYGIPNAWQGETNFWGSTAVSIDRLAAYKDVDVLCFDHDNSKDMDALMATPLWQAMPFVRAGRFQRVPAVWFYGATLSAMHFVRVLDNAIGGKA		6.62	5.86	12.2	5.85	12 ± 1.3			6.51 ± 1.4	3.92 ± 1.1	2.71	
MSGQGKRLMVMAGGTGGHVFPGLAVAHHLMAQGWQVRWLGTADRMEADLVPKHGIEIDFIRISGLRGKGIKALIAAPLRIFNAWRQARAIMKAYKPDVVLGMGGYVSGPGGLAAWSLGIPVVLHEQNGIAGLTNKWLAKIATKVMQAFPGAFPNAEVVGNPVRTDVLALPLPQQRLAGREGPVRVLVVGGSQGARILNQTMPQVAAKLGDSVTIWHQSGKGSQQSVEQAYAEAGQPQHKVTEFIDDMAAAYAWADVVVCRSGALTVSEIAAAGLPALFVPFQHKDRQQYWNALPLEKAGAAKIIEQPQLSVDAVANTLAGWSRETLLTMAERARAASIPDATERVANEVSRVARA	6.19 ± 0.33	6.2 ± 0.14	6.82 ± 0.71	10.9 ± 0.94	6.21 ± 0.43	12.6 ± 0.14	6.05 ± 0.2	11.6 ± 0.54	6.36 ± 0.52	6.16 ± 0.19	3.02 ± 0.13	5.45 ± 0.24
MSHQHTTQTSGQGMLERVFKLREHGTTARTEVIAGFTTFLTMVYIVFVNPQILGVAGMDTSAVFVTTCLIAAFGSIMMGLFANLPVALAPAMGLNAFFAFVVVQAMGLPWQVGMGAIFWGAIGLLLLTIFRVRYWMIANIPVSLRVGITSGIGLFIGMMGLKNAGVIVANPETLVSIGNLTSHSVLLGILGFFIIAILASRNIHAAVLVSIVVTTLLGWMLGDVHYNGIVSAPPSVMTVVGHVDLAGSFNLGLAGVIFSFMLVNLFDSSGTLIGVTDKAGLADEKGKFPRMKQALYVDSISSVTGSFIGTSSVTAYIESSSGVSVGGRTGLTAVVVGLLFLLVIFLSPLAGMVPGYAAAGALIYVGVLMTSSLARVNWQDLTESVPAFITAVMMPFSFSITEGIALGFISYCVMKIGTGRLRDLSPCVIIVALLFILKIVFIDAH	6.107 ± 0.041	5.86 ± 0.14	5.56 ± 0.18	12.7 ± 2.2	6.02 ± 0.079		5.99 ± 0.52	11.2 ± 0.99	5.93	5.32 ± 0.85		6.67 ± 0.81
MSHQLTFADSEFSSKRRQTRKEIFLSRMEQILPWQNMVEVIEPFYPKAGNGRRPYPLETMLRIHCMQHWYNLSDGAMEDALYEIASMRLFARLSLDSALPDRTTIMNFRHLLEQHQLARQLFKTINRWLAEAGVMMTQGTLVDATIIEAPSSTKNKEQQRDPEMHQTKKGNQWHFGMKAHIGVDAKSGLTHSLVTTAANEHDLNQLGNLLHGEEQFVSADAGYQGAPQREELAEVDVDWLIAERPGKVRTLKQHPRKNKTAINIEYMKASIRARVEHPFRIIKRQFGFVKARYKGLLKNDNQLAMLFTLANLFRADQMIRQWERSH [P0CE51]			0.676	3.18	0.532		0.426	0.648		0.495	> 4	3.8 ± 0.34
MSHSSAPERATGAVITDWRPEDPAFWQQRGQRIASRNLWISVPCLLLAFCVWMLFSAVAVNLPKVGFNFTTDQLFMLTALPSVSGALLRVPYSFMVPIFGGRRWTAFSTGILIIPCVWLGFAVQDTSTPYSVFIIISLLCGFAGANFASSMANISFFFPKQKQGGALGLNGGLGNMGVSVMQLVAPLVVSLSIFAVFGSQGVKQPDGTELYLANASWIWVPFLAIFTIAAWFGMNDLATSKASIKEQLPVLKRGHLWIMSLLYLATFGSFIGFSAGFAMLSKTQFPDVQILQYAFFGPFIGALARSAGGALSDRLGGTRVTLVNFILMAIFSGLLFLTLPTDGQGGSFMAFFAVFLALFLTAGLGSGSTFQMISVIFRKLTMDRVKAEGGSDERAMREAATDTAAALGFISAIGAIGGFFIPKAFGSSLALTGSPVGAMKVFLIFYIACVVITWAVYGRHSKK						8.46						
MSHVELQPGFDFQQAGKEVLAIERECLAELDQYINQNFTLACEKMFWCKGKVVVMGMGKSGHIGRKMAATFASTGTPSFFVHPGEAAHGDLGMVTPQDVVIAISNSGESSEITALIPVLKRLHVPLICITGRPESSMARAADVHLCVKVAKEACPLGLAPTSSTTATLVMGDALAVALLKARGFTAEDFALSHPGGALGRKLLLRVNDIMHTGDEIPHVKKTASLRDALLEVTRKNLGMTVICDDNMMIEGIFTDGDLRRVFDMGVDVRQLSIADVMTPGGIRVRPGILAVEALNLMQSRHITSVMVADGDHLLGVLHMHDLLRAGVV	4.95 ± 1.9	4.36 ± 0.2	5.27 ± 0.15	10.3 ± 2.3	4.29 ± 0.37	7.36 ± 0.41	5.827 ± 0.055	11.6 ± 0.54	4.95 ± 0.44	4.2 ± 0.2	2.92 ± 0.13	
MSIISTKYLLQDAQANGYAVPAFNIHNAETIQAILEVCSEMRSPVILAGTPGTFKHIALEEIYALCSAYSTTYNMPLALHLDHHESLDDIRRKVHAGVRSAMIDGSHFPFAENVKLVKSVVDFCHSQDCSVEAELGRLGGVEDDMSVDAESAFLTDPQEAKRFVELTGVDSLAVAIGTAHGLYSKTPKIDFQRLAEIREVVDVPLVLHGASDVPDEFVRRTIELGVTKVNVATELKIAFAGAVKAWFAENPQGNDPRYYMRVGMDAMKEVVRNKINVCGSANRISA [P0AB74]			3.2	4.72							2.35 ± 1.1	> 8
MSIKLIAVDMDGTFLSDQKTYNRERFMAQYQQMKAQGIRFVVASGNQYYQLISFFPEIANEIAFVAENGGWVVSEGKDVFNGELSKDAFATVVEHLLTRPEVEIIACGKNSAYTLKKYDDAMKTVAEMYYHRLEYVDNFDNLEDIFFKFGLNLSDELIPQVQKALHEAIGDIMVSVHTGNGSIDLIIPGVHKANGLRQLQKLWGIDDSEVVVFGDGGNDIEMLRQAGFSFAMENAGSAVVAAAKYRAGSNNREGVLDVIDKVLKHEAPFDQ	2.026 ± 0.013	1.78 ± 0.4	3.96 ± 0.16	6.88 ± 0.18	2.08 ± 0.059	2.73 ± 0.66	2.7 ± 0.7	7.59 ± 3.2	2.53 ± 0.083	1.92 ± 0.13	2.44 ± 0.25	4.81 ± 0.67
MSIKTIKYFSTIIVAVVAVLAGWWLWNYYMQSPWTRDGKIRAEQVSITPQVSGRIVELNIKDNQLVNAGDLLLTIDKTPFQIAELNAQAQLAKAQSDLAKANNEANRRRHLSQNFISAEELDTANLNVKAMQASVDAAQATLKQAQWQLAQTEIRAPVSGWVTNLTTRIGDYADTGKPLFALVDSHSFYVIGYFEETKLRHIREGAPAQITLYSDNKTLQGHVSSIGRAIYDQSVESDSSLIPDVKPNVPWVRLAQRVPVRFALDKVPGDVTLVSGTTCSIAVGQ	4.89 ± 0.55	6.39 ± 0.71	6.64 ± 0.59	11.2 ± 1.9	6.093 ± 0.06	14.4 ± 1.4	6.58 ± 0.25	12.5 ± 0.34	6.46 ± 0.5	5.645 ± 0.01	3.43 ± 0.24	6.427 ± 0.064
